# Target: IGF-1 receptor (IGF-1R) on primary mouse lung fibroblasts / in mouse lung (mouse) (UniProt Q60751)
# Assay: cell-based or functional assay
# IGF-1 receptor (IGF-1R) on primary mouse lung fibroblasts / in mouse lung (mouse), sequence (Q60751 31-1373): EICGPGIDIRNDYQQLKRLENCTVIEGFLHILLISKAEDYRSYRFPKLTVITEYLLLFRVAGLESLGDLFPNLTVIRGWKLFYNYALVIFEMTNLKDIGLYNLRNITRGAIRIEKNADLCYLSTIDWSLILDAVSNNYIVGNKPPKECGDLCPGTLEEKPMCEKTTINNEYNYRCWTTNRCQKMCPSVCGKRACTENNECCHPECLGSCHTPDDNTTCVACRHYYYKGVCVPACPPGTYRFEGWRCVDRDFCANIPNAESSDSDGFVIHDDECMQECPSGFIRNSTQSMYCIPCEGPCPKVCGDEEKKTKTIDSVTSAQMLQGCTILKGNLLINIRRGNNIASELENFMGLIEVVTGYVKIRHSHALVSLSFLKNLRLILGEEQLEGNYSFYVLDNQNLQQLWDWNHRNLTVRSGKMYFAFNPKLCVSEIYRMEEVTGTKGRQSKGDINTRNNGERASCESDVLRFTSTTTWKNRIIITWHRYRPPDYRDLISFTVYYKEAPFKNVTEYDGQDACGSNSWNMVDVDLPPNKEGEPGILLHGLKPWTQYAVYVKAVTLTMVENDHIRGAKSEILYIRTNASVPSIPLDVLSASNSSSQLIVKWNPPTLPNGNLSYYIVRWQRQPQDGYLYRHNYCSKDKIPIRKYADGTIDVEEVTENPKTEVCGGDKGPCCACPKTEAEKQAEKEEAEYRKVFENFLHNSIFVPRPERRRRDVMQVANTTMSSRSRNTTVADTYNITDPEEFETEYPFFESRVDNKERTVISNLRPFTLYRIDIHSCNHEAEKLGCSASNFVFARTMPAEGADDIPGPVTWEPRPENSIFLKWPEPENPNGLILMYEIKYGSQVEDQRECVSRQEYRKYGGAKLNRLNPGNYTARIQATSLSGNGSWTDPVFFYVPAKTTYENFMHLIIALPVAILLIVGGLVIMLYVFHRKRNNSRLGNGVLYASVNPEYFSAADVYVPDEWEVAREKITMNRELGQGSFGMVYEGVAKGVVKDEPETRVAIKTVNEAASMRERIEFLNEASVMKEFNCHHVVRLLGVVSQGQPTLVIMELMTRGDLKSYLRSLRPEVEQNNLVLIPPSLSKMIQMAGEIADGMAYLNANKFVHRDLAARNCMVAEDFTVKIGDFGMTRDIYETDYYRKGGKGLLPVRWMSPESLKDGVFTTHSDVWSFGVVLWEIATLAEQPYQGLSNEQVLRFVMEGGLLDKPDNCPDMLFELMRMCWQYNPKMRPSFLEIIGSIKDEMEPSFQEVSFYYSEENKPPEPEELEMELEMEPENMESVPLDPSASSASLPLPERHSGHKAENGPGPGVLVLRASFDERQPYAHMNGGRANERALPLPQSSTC
substance,measurement,value
IGF-1 (R&D Systems) (ligand),migration of mouse lung fibroblasts (transwell),1.8 fold
